Results on 21 molecules are retold here after patent publication US20250011363A1, “OPTIMIZED SHORTENED PEPTIDE THAT BINDS TO ACETYLCHOLINE RECEPTOR, AND USE THEREOF” (SKINMED CO., LTD., priority 2021, published 2025).

As usually defined, the Kd is the constant that tells how readily two partners part at equilibrium. Lower therefore signals higher affinity.

Experiment [1] has as its target acetylcholine receptor. The experiment in a line: SPR, acetylcholine receptor immobilized on CM5 chip, peptide at 10 uM. In general terms: Surface plasmon resonance follows binding to a sensor surface in real time, without labels.
The target in experiment [2] is acetylcholine receptor. The experiment in a line: SPR, acetylcholine receptor on CM5 chip, peptide 10 µM.
For experiment [3], the target named is acetylcholine receptor. The experiment in a line: SPR, acetylcholine receptor immobilized on chip, peptide at 10 uM.
In experiment [4] the target is acetylcholine receptor. The experiment in a line: SPR, AchR immobilized on chip.
For experiment [5], the target named is acetylcholine receptor. The experiment in a line: SPR, peptide at 10 uM on immobilised AchR.
The target of experiment [6] is acetylcholine receptor protein. The experiment in a line: SPR, concentration series (FIG. 9); given as 'affinity'.
Experiment [7] addresses acetylcholine receptor protein. Kind of experiment: SPR, affinity against the reference Synake.
Experiment [8] addresses acetylcholine receptor protein. Kind of experiment: SPR (Biacore 3000), receptor immobilised on CM5 chip, peptide in solution; given as 'affinity'.
Experiment [9] addresses acetylcholine receptor protein. The experiment in a line: SPR, receptor on CM5 chip, method of Example 1 (FIG. 3).

KNNNR [5mer-1199] had a Binding affinity (RU) in the experiment with acetylcholine receptor [1] of 29 RU.
As for KQFLRK [6mer-2-597], the Binding affinity (RU) with acetylcholine receptor [2] turned out to be 154 RU.
For KGIQKK [6mer-2-596], the Binding affinity (RU) with acetylcholine receptor [2] came to 153 RU.
In turn, RWYRRR [6mer-2-594] displayed a Binding affinity (RU) in the experiment with acetylcholine receptor [2] of 139 RU.
RYTFR [5mer-899]: the Binding affinity (RU) with acetylcholine receptor [1] is 31 RU.
Take KVFRRR [6mer-2-598]: the Binding affinity (RU) in the experiment with acetylcholine receptor [2] amounted to 146 RU.
For KGRRK [5mer-299], the Binding affinity (RU) with acetylcholine receptor [3] is 62 RU.
RKNEK [5mer-1200] showed a Binding affinity (RU) with acetylcholine receptor [1] of 16 RU.
As to RQYRK [5mer-300], in the experiment with acetylcholine receptor [3], the Binding affinity (RU) came to 81 RU.
Turning to RSQLKR [6mer-2-593], in the experiment with acetylcholine receptor [2], the Binding affinity (RU) came out at 139 RU.
Consider KLYSK [5mer-600], for which the Binding affinity (RU) with acetylcholine receptor [3] stood at 64 RU.
In the case of RSQLKK [6mer-2-600], in the experiment with acetylcholine receptor [2], the Binding affinity (RU) is 139 RU.
With RKRIRR [6mer-1-43], the Binding affinity (RU) with acetylcholine receptor [4] and with acetylcholine receptor [5] was 548 RU throughout. In experiment [6], this molecule showed a Kd of 0.609 µM.
As for RRRYRK [6mer-2-599], the Binding affinity (RU) in the experiment with acetylcholine receptor [2] came out at 121 RU.
Same read-out and setting: the figure for KGILRR [6mer-2-591] is 146 RU.
The same measure, in the same setting: the figure for RWVLRK [6mer-2-592] is 122 RU; for KGRLRK [6mer-2-590] it is 148 RU.
RKSLLR [Espep2-6mer] yielded a fold higher affinity compared to Synake in experiment [7] of 40 times. The molecule further had a Kd in experiment [8] of 57 µM. For the same molecule, in experiment [9], the RU value came to 177 RU.
Molecule KWVSR [5mer-599] showed a Binding affinity (RU) with acetylcholine receptor [3] of 61 RU.
In turn, KLRCKK [6mer-2-595] registered a Binding affinity (RU) with acetylcholine receptor [2] of 154 RU.
As to RHSVK [5mer-900], in the experiment with acetylcholine receptor [1], the Binding affinity (RU) was found to be 29 RU.
